Numbered stars: 1 amine (or outer) side, 2 acyl side, 3 side chain; on linkers, the order of the positions; unused ones are H or OH. Bridge positions count the residues as written; N and C are the ends. Side chains are listed from the residue outwards. Ends that are not written are not given here. * marks the point of attachment. C20 diacid = O=C(O)CCCCCCCCCCCCCCCCCCC(=O)*; γGlu = O=C(O)[C@H](CCC(=O)[*:2])N[*:1]; AEEA = NCCOCCOCC(=O)O
T1: human calcitonin receptor (human, UniProt P30988 25-474)
T1 sequence (looked up): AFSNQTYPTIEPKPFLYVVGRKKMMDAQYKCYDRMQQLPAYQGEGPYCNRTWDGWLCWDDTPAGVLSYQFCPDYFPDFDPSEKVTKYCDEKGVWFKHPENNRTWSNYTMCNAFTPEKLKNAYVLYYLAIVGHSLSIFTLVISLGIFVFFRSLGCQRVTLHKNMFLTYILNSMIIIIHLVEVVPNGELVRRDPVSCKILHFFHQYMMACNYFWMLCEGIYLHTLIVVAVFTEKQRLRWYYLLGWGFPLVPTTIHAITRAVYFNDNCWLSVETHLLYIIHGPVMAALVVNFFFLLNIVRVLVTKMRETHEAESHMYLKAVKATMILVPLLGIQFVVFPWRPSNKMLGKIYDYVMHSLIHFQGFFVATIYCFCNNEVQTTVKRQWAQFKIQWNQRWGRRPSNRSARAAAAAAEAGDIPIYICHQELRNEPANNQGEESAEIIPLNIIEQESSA

T2: human amylin receptor (amylin 3(a) receptor: human calcitonin receptor co-expressed with RAMP-3) (human, UniProt P30988 25-474; O60896 24-148, limits assumed)
T2 sequence (looked up) 1: T1 sequence (looked up)
T2 sequence (looked up) 2: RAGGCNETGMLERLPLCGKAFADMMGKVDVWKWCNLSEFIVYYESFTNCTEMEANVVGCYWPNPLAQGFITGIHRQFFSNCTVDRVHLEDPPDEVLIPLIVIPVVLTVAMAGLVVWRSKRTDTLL

B1: N^ε-[2-[2-[2-[[(4S)-4-carboxy-4-(19-carboxynonadecanoylamino)butanoyl]amino]ethoxy]ethoxy]acetyl]Lys[Arg1,Arg17,Pro21,Pro27,His35]-h-amylin (peptide)
peptide: K([AEEA-γGlu-C20 diacid])RCNTATCATQRLANFLRHSSPNFGAIPSSTNVGSHTY-NH2
modifications: disulfide 3-8; N-terminus assumed
SMILES: CC[C@H](C)[C@H](NC(=O)[C@H](C)NC(=O)CNC(=O)[C@H](Cc1ccccc1)NC(=O)[C@H](CC(N)=O)NC(=O)[C@@H]1CCCN1C(=O)[C@H](CO)NC(=O)[C@H](CO)NC(=O)[C@H](Cc1c[nH]cn1)NC(=O)[C@H](CCCNC(=N)N)NC(=O)[C@H](CC(C)C)NC(=O)[C@H](Cc1ccccc1)NC(=O)[C@H](CC(N)=O)NC(=O)[C@H](C)NC(=O)[C@H](CC(C)C)NC(=O)[C@H](CCCNC(=N)N)NC(=O)[C@H](CCC(N)=O)NC(=O)[C@@H](NC(=O)[C@H](C)NC(=O)[C@@H]1CSSC[C@H](NC(=O)[C@H](CCCNC(=N)N)NC(=O)[C@@H](N)CCCCNC(=O)COCCOCCNC(=O)CC[C@H](NC(=O)CCCCCCCCCCCCCCCCCCC(=O)O)C(=O)O)C(=O)N[C@@H](CC(N)=O)C(=O)N[C@@H]([C@@H](C)O)C(=O)N[C@@H](C)C(=O)N[C@@H]([C@@H](C)O)C(=O)N1)[C@@H](C)O)C(=O)N1CCC[C@H]1C(=O)N[C@@H](CO)C(=O)N[C@@H](CO)C(=O)N[C@H](C(=O)N[C@@H](CC(N)=O)C(=O)N[C@H](C(=O)NCC(=O)N[C@@H](CO)C(=O)N[C@@H](Cc1c[nH]cn1)C(=O)N[C@H](C(=O)N[C@@H](Cc1ccc(O)cc1)C(N)=O)[C@@H](C)O)C(C)C)[C@@H](C)O
notes: 38 residues: N-terminal extension by Lys (-1K); also called compound 45
B2: N^ε1-[(4S)-4-carboxy-4-(19-carboxynonadecanoylamino)butanoyl]-[Arg17,Pro21,Pro27]-h-amylin (peptide)
peptide: K([γGlu-C20 diacid])CNTATCATQRLANFLRHSSPNFGAIPSSTNVGSNTY-NH2
modifications: disulfide 2-7; N-terminus assumed
SMILES: CC[C@H](C)[C@H](NC(=O)[C@H](C)NC(=O)CNC(=O)[C@H](Cc1ccccc1)NC(=O)[C@H](CC(N)=O)NC(=O)[C@@H]1CCCN1C(=O)[C@H](CO)NC(=O)[C@H](CO)NC(=O)[C@H](Cc1c[nH]cn1)NC(=O)[C@H](CCCNC(=N)N)NC(=O)[C@H](CC(C)C)NC(=O)[C@H](Cc1ccccc1)NC(=O)[C@H](CC(N)=O)NC(=O)[C@H](C)NC(=O)[C@H](CC(C)C)NC(=O)[C@H](CCCNC(=N)N)NC(=O)[C@H](CCC(N)=O)NC(=O)[C@@H](NC(=O)[C@H](C)NC(=O)[C@@H]1CSSC[C@H](NC(=O)[C@@H](N)CCCCNC(=O)CC[C@H](NC(=O)CCCCCCCCCCCCCCCCCCC(=O)O)C(=O)O)C(=O)N[C@@H](CC(N)=O)C(=O)N[C@@H]([C@@H](C)O)C(=O)N[C@@H](C)C(=O)N[C@@H]([C@@H](C)O)C(=O)N1)[C@@H](C)O)C(=O)N1CCC[C@H]1C(=O)N[C@@H](CO)C(=O)N[C@@H](CO)C(=O)N[C@H](C(=O)N[C@@H](CC(N)=O)C(=O)N[C@H](C(=O)NCC(=O)N[C@@H](CO)C(=O)N[C@@H](CC(N)=O)C(=O)N[C@H](C(=O)N[C@@H](Cc1ccc(O)cc1)C(N)=O)[C@@H](C)O)C(C)C)[C@@H](C)O
notes: also called compound 48

Legend:
[1] = molecular target: T1, human calcitonin receptor; assay: cell-based or functional assay
[2] = molecular target: T2, human amylin receptor (amylin 3(a) …); assay: cell-based or functional assay

Ratio hCT/hAmylin funct. (hCTR EC50 against hAmylin-R EC50) [1]	hCTR funct. EC50 [1] [nM]	hAmylin-R funct. EC50 [2] [nM]	Binder
17	10.1	0.594	B1
17	1.97	0.116	B2
